Paper doi:10.1101/2022.09.27.509696 (bioRxiv, 2022)
“And” between values parts separate entries of the source, which are not always exact repeats. Equal values may be shown once.

Columns and labels:
Experiment in all cases: split reporter
[1] = molecular target: T1, sLgBiT-GPR83 (N-terminally sLgBiT-fused mature human GPR83) (human, UniProt Q9NYM4-1 17-423)
[2] = molecular target: T1, sLgBiT-GPR83 (N-terminally sLgBiT-fused …); remark: listed apart in the source
[3] = molecular target: T1, sLgBiT-GPR83 (N-terminally sLgBiT-fused …); remark: listed apart in the source

T1 sequence (Q9NYM4 17-423): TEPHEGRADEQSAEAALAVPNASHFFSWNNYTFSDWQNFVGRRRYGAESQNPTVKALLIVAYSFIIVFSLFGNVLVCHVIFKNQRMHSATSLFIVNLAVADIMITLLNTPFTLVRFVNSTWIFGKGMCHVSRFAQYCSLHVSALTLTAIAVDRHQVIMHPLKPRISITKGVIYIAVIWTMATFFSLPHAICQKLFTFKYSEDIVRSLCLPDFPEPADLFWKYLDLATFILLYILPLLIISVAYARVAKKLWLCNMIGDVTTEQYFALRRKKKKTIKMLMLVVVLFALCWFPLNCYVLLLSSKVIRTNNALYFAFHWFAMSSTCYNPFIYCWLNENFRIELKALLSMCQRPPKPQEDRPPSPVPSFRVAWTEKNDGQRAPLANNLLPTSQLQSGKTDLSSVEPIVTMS

Binder | association half-life [1] | dissociation half-life [1] | Kd [2] | IC50 [3]
SmBiT-FAM237A (ligand) HSQTDLLALSQADPQCWESSSVLLLEMWKPRVSNTVSGFWDFMIYLKSSENLKHGALFWDLAQLFWDIYVDCVLSRNHGL | ~3 min | ~7.5 min | ~70 nM | 
mature human FAM237A (family with sequence similarity 237 member A) (ligand, amidated C-terminus; one intramolecular disulfide bond) HSQTDLLALSQADPQCWESSSVLLLEMWKPRVSNTVSGFWDFMIYLKSSENLKHGALFWDLAQLFWDIYVDCVLSRNHGL |  |  |  | 13.5 nM and 12.9 nM and 16.9 nM
